Results taken from PMC10703496.

How the values were obtained:
[1] = biological target: ACE2(18–740)-QMP: truncated dimeric human ACE2 (residues 18–740) fused to the N-terminal end of engi (human) (UniProt Q9BYF1); test: SPR
[2] = biological target: ACE2(18–740)-QMP: truncated dimeric human ACE2 (residues 18–740) fused to the N-terminal end of engi (human) (UniProt Q9BYF1); test: SPR; pH 5.5

Sequence of soluble His-tagged human neonatal Fc receptor (human FcRn-His) (P55899 24-297): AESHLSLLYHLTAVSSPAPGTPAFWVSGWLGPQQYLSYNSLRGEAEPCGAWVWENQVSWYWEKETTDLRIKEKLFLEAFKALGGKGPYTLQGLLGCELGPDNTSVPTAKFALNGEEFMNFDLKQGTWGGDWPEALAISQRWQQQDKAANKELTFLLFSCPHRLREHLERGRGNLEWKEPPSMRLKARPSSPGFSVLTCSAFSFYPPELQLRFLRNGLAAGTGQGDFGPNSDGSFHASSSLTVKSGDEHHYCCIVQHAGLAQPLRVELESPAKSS
Sequence of soluble His-tagged human neonatal Fc receptor (human FcRn-His) (P61769 21-119): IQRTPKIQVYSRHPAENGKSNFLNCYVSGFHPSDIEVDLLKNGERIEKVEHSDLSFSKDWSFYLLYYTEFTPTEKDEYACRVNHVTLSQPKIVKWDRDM

Substance: soluble His-tagged human neonatal Fc receptor (human FcRn-His) (from UniProt P55899 24-297; P61769 21-119)
- kon [1]: 254000 M⁻¹ s⁻¹
- Kd [2]: 0.8 nM
- koff [2]: 0.0002 s⁻¹
